Consider two molecules from patent US8735553 (BEIGENE SWITZERLAND, dated 2014).

Where a chain is given by its changes, count along the chain named. In names and notes the source's numbering stands.

Test [1] has as its target T1, wild-type human PD-1 recombinant protein (PD-1/His or PD-1/Fc, not said which) (human, UniProt Q15116 21-168).
T1 construct: also called WT PD-1
As to the kind of experiment: ELISA on coated recombinant PD-1; cell carries the * mark (Fab version); ELISA cell marked *.

The target of test [2] is T2, PD-1-EC/His (human, UniProt Q15116 21-168).
T2 construct: AA 1-168 includes the signal peptide; also called PD-1/His; human PD-1/His
Kind of test: SPR (BIAcore T-200), human PD-1/His coupled to CM5 chip, Fab injected. For orientation: In SPR one partner is held on a chip, and binding of the other changes the refractive index at the surface.
Description: For affinity determinations of anti-PD-1 Fabs, SPR assays were used with the BIAcore™ T-200 instrument (GE Life Sciences). […] Association rates ($kon$) and dissociation rates ($koff$) were calculated using the one-to-one Langmuir binding model (BIA Evaluation Software, GE Life Sciences). The equilibrium dissociation constant (K_d) was calculated as the ratio $koff/kon$.

The term EC50 denotes the concentration that produces a half-maximal response. The term Kd denotes the concentration at which binding is half-saturated. Higher therefore signals lower affinity.

T1 sequence (Q15116 21-168 limits assumed): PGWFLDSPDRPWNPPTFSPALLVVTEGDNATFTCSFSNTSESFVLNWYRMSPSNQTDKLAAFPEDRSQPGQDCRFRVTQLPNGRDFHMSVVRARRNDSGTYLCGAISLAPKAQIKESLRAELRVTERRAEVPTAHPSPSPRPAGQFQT
T2 sequence (Q15116 21-168): as the sequence (Q15116 21-168 limits assumed) above

B1: hu326-4A3 Fab (Fab, V domains shown)
VH: QVQLVQSGSELKKPGASVKVSCKASGYTFTNYGMNWVRQAPGQGLKWMGWINNNNAEPTYAQDFRGRFVFSLDTSASTAYLQISSLKTEDTAVYYCARDVMDYWGQGTLVTVSS
VL: DIVLTQSPASLAVSPGQRATITCRASESVDNYGYSFMHWYQQKPGQPPKLLIYRASNLESGVPARFSGSGSGTDFTLTINPVEAEDTANYYCQQSKEYPTFGGGTKVEIK
notes: Fab: VH on human IgG2 CH1 (C232S, C233S, Kabat) with C-terminal c-Myc-His8 tag; also called hu326-4A3 (Fab version)
In the case of B1, the EC50 in test [1] turned out to be 0.091 µg/mL.

B2: hu326-3G1 Fab (Fab, V domains shown)
VH: B1 VH with S9P, A56G
VL: B1 VL with G72R, E85N
notes: Fab: VH on human IgG2 CH1 (C232S, C233S, Kabat) with C-terminal c-Myc-His8 tag
B2 gave an equilibrium dissociation constant (Kd) in test [2] of 1 nM.
